# Data: paper PMC5031558, “SPATA2 Links CYLD to LUBAC, Activates CYLD, and Controls LUBAC Signaling” (Molecular Cell, 2016)
# T1: HOIP PUB domain (HOIP 5–180, crystal structure) (UniProt Q96EP0 5-180)
# T1 construct: 5–180 may be the modelled residues of the 1–184 construct; source: E. coli, purified (as described in Elliott et al., 2014)
# T1 sequence (looked up): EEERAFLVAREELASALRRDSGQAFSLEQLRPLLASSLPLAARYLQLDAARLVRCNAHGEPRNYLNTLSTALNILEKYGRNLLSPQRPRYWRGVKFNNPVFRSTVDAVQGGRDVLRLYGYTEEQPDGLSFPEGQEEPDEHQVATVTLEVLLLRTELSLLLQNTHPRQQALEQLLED
# T2: HOIP PUB domain (aa 1–184) (UniProt Q96EP0 1-184)
# T2 construct: HOIP (RNF31), PUB domain, residues 1-184; The construct used in the pull-down, NMR and FP experiments is called only 'HOIP PUB domain'; also called HOIP PUB domain (1–184); source: E. coli, purified (as described in Elliott et al., 2014)
# T2 sequence (looked up): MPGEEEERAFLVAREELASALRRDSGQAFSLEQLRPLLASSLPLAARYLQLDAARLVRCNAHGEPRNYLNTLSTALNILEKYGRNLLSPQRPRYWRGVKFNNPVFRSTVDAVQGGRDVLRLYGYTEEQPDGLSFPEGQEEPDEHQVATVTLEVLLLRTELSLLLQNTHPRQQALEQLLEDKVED
# B1: CYLD USP domain (aa 583–956) (domain or fragment, human, UniProt Q9NQC7 583-956, looked up)
# chain: GLEIMIGKKKGIQGHYNSCYLDSTLFCLFAFSSVLDTVLLRPKEKNDVEYYSETQELLRTEIVNPLRIYGYVCATKIMKLRKILEKVEAASGFTSEEKDPEEFLNILFHHILRVEPLLKIRSAGQKVQDCYFYQIFMEKNEKVGVPTIQQLLEWSFINSNLKFAEAPSCLIIQMPRFGKDFKLFKKIFPSLELNITDLLEDTPRQCRICGGLAMYECRECYDDPDISAGKIKQFCKTCNTQVHLHPKRLNHKYNPVSLPKDLPDWDWRHGCIPCQNMELFAVLCIETSHYVAFVKYGKDDSAWLFFDSMADRDGGQNGFNIPQVTPCPEVGEYLKMSLEDLHSLDSRRIQGCARRLLCDAYMCMYQSPTMSLYK
# notes: Dimer by SEC-MALS (86 kDa); also called intact CYLD USP domain; source: Sf9 insect cells, purified (as described in Komander et al., 2008)
# B2: CYLD USP domain I790D (domain or fragment, human)
# chain: GLEIMIGKKKGIQGHYNSCYLDSTLFCLFAFSSVLDTVLLRPKEKNDVEYYSETQELLRTEIVNPLRIYGYVCATKIMKLRKILEKVEAASGFTSEEKDPEEFLNILFHHILRVEPLLKIRSAGQKVQDCYFYQIFMEKNEKVGVPTIQQLLEWSFINSNLKFAEAPSCLIIQMPRFGKDFKLFKKIFPSLELNITDLLEDTPRQCRDCGGLAMYECRECYDDPDISAGKIKQFCKTCNTQVHLHPKRLNHKYNPVSLPKDLPDWDWRHGCIPCQNMELFAVLCIETSHYVAFVKYGKDDSAWLFFDSMADRDGGQNGFNIPQVTPCPEVGEYLKMSLEDLHSLDSRRIQGCARRLLCDAYMCMYQSPTMSLYK
# notes: CYLD, human, USP domain with I790D, 44 kDa observed; Monomer by SEC-MALS; Limits of the mutant are not restated; parent is m1; also called CYLD I790D; I790D dimerization mutant; source: Sf9 insect cells, purified (as described in Komander et al., 2008)
# B3: SPATA2 PUB domain (aa 1–241) (domain or fragment, UniProt Q9UM82 1-241, looked up)
# chain: MGKPSSMDTKFKDDLFRKYVQFHESKVDTTTSRQRPGSDECLRVAASTLLSLHKVDPFYRFRLIQFYEVVESSLRSLSSSSLRALHGAFSMLETVGINLFLYPWKKEFRSIKTYTGPFVYYVKSTLLEEDIRAILSCMGYTPELGTAYKLRELVETLQVKMVSFELFLAKVECEQMLEIHSQVKDKGYSELDIVSERKSSAEDVRGCSDALRRRAEGREHLTASMSRVALQKSASERAAKD
# notes: Spermatogenesis-associated protein 2 (SPATA2), PUB domain, residues 1-241, 27.6 kDa as printed; Monomer by SEC-MALS; also called SPATA2 PUB domain (1–241); source: E. coli, purified (as described in Elliott et al., 2014)
# B4: SPATA2 (aa 7–356) (domain or fragment, UniProt Q9UM82 7-356, looked up)
# chain: MDTKFKDDLFRKYVQFHESKVDTTTSRQRPGSDECLRVAASTLLSLHKVDPFYRFRLIQFYEVVESSLRSLSSSSLRALHGAFSMLETVGINLFLYPWKKEFRSIKTYTGPFVYYVKSTLLEEDIRAILSCMGYTPELGTAYKLRELVETLQVKMVSFELFLAKVECEQMLEIHSQVKDKGYSELDIVSERKSSAEDVRGCSDALRRRAEGREHLTASMSRVALQKSASERAAKDYYKPRVTKPSRSVDAYDSYWESRKPPLKASLSLRKEPVATDVGDDLKDEIIRPSPSLLTMASSPHGSPDVLPPASPSNGPALLRGTYFSTQDDVDLYTDSEPRATYRRQDALRPD
# notes: also called extended SPATA2 fragment; source: E. coli, purified (as described in Elliott et al., 2014)
# Experiments:
# [1] = molecular target: T1, HOIP PUB domain (HOIP 5–180, crystal …); experiment: crystal structure; HOIP PUB domain with SPATA2 PIM peptide (aa 334–344), 2.7 Å, space group P43, two complexes in the asymmetric unit; conditions: both partners purified
# [2] = molecular target: the molecule itself; experiment: SEC-MALS; Superdex 75 size-exclusion column; CYLD and SPATA2 PUB variants alone and mixed
# [3] = molecular target: B3; experiment: cell-based or functional assay
# [4] = molecular target: B3; experiment: SEC-MALS; Superdex 75 size-exclusion column; CYLD and SPATA2 PUB variants alone and mixed; conditions: both partners purified
# SPATA2 (aa 7–356) = molecular target: B4; experiment: SEC-MALS; Superdex 200 column; purified SPATA2 (aa 7–356), HOIP PUB (aa 1–184) and CYLD alone and mixed; conditions: both partners purified
# [5] = molecular target: B1; experiment: SPR; fraction of CYLD variant bound to SPATA2 PUB against varying CYLD concentrations; kinetic and equilibrium fits; conditions: both partners purified
# CYLD USP domain I790D = molecular target: B2; experiment: as above; conditions: both partners purified
# [6] = molecular target: T2, HOIP PUB domain (aa 1–184); experiment: SEC-MALS; Superdex 200 column; purified SPATA2 (aa 7–356), HOIP PUB (aa 1–184) and CYLD alone and mixed; conditions: both partners purified
binder,measurement,setting,value
"DVDLYTDSEPR (peptide, UniProt Q9UM82 334-344, looked up, SPATA2, peptide spanning the PIM (Asp-Leu-Tyr-Thr, residues 336-339), residues 334-344; also called SPATA2 334–344) [SPATA2 PIM peptide (aa 334–344)]",binding result,[1],binds
"CYLD B-box domain (aa 778–855) (domain or fragment, human, UniProt Q9NQC7 778-855, looked up, 15N-labelled in the NMR titration, CYLD, human, B-box domain, residues 778-855, 9.1 kDa as printed; Dimer by SEC-MALS (17.1 kDa); also called isolated B-box domain) TDLLEDTPRQCRICGGLAMYECRECYDDPDISAGKIKQFCKTCNTQVHLHPKRLNHKYNPVSLPKDLPDWDWRHGCIP",stoichiometry N,[2],2
B1,"kcat/KM of CYLD for fluorescent Met1/Lys63-linked diUb substrates, with against without SPATA2",[3],~2 fold
same,stoichiometry N,[4],1 CYLD USP per SPATA2 PUB (2:2)
same,stoichiometry N,[2],2
same,stoichiometry N,SPATA2 (aa 7–356),1 CYLD per SPATA2 (2:2:2 with HOIP PUB)
B2,stoichiometry N,[4],1 CYLD USP I790D per SPATA2 PUB (1:1)
B3,Kd,[5],96 nM
same,Kd,CYLD USP domain I790D,518 nM
B4,stoichiometry N,[6],1 SPATA2 per HOIP PUB (1:1)
